Results: article PMC11510448

Tests used:
[1] = target: human Cu/Zn Superoxide Dismutase 1, A4V variant (Flag-SOD1-6His) (human) (UniProt P00441); assay: SEC; gel filtration of the Ni-NTA eluate on a custom-made calibrated Sephacryl S-200 column (1.2 x 100 cm), TBS pH 7.4, UV detection at 280 nm
[2] = target: human Cu/Zn Superoxide Dismutase 1, A4V variant (Flag-SOD1-6His) (human) (UniProt P00441); assay: native gel or EMSA; Native-PAGE of selected gel filtration fractions, SDS-free 10% gel, samples not boiled, run at RT, Coomassie stain; ESTDZ2 (ca. 28 kDa) as size standard

“human Cu/Zn Superoxide Dismutase 1, A4V variant (Flag-SOD1-6His) (from UniProt P00441 6-154) (enzyme)” gave a stoichiometry N [1] of 2 and a stoichiometry N [2] of 2.
